This assay concerns the target T1, His-tagged PIAS1 (human, UniProt O75925 1-651).
T1 construct: also called His-PIAS1; purified PIAS1
Put plainly: pull-down. The conditions noted are these: both partners purified.

T1 sequence (O75925 whole entry): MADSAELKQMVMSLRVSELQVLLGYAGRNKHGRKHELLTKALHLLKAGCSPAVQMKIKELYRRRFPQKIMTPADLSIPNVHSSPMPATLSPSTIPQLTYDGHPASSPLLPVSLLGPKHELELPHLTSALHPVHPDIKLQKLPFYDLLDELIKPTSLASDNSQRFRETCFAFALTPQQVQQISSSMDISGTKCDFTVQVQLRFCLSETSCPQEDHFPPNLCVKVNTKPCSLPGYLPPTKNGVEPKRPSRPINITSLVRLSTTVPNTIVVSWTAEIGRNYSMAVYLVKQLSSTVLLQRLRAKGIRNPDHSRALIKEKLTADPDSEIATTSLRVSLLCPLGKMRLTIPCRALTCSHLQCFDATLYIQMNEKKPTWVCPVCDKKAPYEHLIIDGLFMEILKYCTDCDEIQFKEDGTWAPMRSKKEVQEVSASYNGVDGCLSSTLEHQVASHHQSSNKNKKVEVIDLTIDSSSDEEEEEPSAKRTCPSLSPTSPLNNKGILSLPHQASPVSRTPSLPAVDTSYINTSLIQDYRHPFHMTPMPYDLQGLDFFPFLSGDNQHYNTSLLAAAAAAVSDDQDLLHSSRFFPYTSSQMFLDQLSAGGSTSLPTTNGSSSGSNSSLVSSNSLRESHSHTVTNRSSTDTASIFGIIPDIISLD

B1: GST-WSNNP (natural protein)
chain: MATKGTKRSYEQMETDGERQNATEIRASVGKMIGGIGRFYIQMCTELKLSDYEGRLIQNSLTIERMVLSAFDERRNKYLEEHPSAGKDPKKTGGPIYRRVDGKWMRELILYDKEEIRRIWRQANNGDDATAGLTHMMIWHSNLNDATYQRTRALVRTGMDPRMCSLMQGSTLPRRSGAAGAAVKGVGTMVMELIRMIKRGINDRNFWRGENGRRTRIAYERMCNILKGKFQTAAQRAMVDQVRESRNPGNAEFEDLIFLARSALILRGSVAHKSCLPACVYGPAVASGYDFEREGYSLVGIDPFRLLQNSQVYSLIRPNENPAHKSQLVWMACHSAAFEDLRVSSFIRGTKVVPRGKLSTRGVQIASNENMETMESSTLELRSRYWAIRTRSGGNTNQQRASSGQISIQPTFSVQRNLPFDRPTIMAAFTGNTEGRTSDMRTEIIRLMESARPEDVSFQGRGVFELSDEKAASPIVPSFDMSNEGSYFFGDNAEEYDN
Take B1: the binding result is reported as “binds”.

For the origin of these results see paper PMC9009768 (PLoS Pathogens, 2022).
